The values that follow come from patent US20190077863A1 (AERPIO PHARMACEUTICALS, published 2019).

Assay [1] has as its target T1, Cynomolgus VE-PTP (Cyno PTP-β) containing first eight FN3 repeats with C-terminal His10 tag (Cyno Beta ½ … (cynomolgus, UniProt P23467 25-817 (human entry))).
T1 construct: Produced in HEK293 cells; it was not cut off; also called Cyno VE-PTP
T1 chain: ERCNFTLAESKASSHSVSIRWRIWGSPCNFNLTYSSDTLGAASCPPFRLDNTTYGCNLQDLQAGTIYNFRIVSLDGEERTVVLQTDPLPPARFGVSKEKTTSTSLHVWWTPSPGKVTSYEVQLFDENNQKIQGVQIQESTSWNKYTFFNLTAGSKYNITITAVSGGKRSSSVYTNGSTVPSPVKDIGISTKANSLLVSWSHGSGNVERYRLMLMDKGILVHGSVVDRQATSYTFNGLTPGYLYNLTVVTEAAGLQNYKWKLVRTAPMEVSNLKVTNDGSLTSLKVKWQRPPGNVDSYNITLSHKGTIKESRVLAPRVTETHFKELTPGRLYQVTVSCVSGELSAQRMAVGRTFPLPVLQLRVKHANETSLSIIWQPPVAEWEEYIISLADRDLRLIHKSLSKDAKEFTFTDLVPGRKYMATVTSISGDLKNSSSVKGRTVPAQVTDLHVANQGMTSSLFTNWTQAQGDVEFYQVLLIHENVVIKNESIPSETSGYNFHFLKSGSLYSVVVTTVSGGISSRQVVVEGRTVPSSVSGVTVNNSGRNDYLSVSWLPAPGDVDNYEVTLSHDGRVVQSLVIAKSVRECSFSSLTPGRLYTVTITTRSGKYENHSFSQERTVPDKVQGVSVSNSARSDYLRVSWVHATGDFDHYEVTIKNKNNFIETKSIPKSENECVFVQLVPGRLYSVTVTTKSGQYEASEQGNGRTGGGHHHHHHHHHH
The assay is described as follows: ELISA, coated antigen. As for the experimental part: (§1) HPTP-β, cyno PTP-β, and HPTP-η proteins were coated onto ELISA plates in coating buffer (pH 9.4). Each protein was prepared as a 1 μg/mL protein stock in 50 mM carbonate-bicarbonate. The coated proteins were aliquoted at a volume of 100 μL/well into sterile, clear, polystyrene, flat bottom 96-well plates. The plates were incubated overnight at 4° C. After overnight incubation, the plates were washed 3× with 200 μL/well of 1×PBS-T (PBS with 0.05% Tween 20). The immunizing protein was human VE-PTP (HPTP-β). The plates were then blocked with 200 μL/well of 5% blotting grade blocker non-fat dry milk in PBS-T and incubated for 1 hr at room temperature.
(§2) Primary antibody samples were prepared for the humanized variants and the negative control, anti-hCD20-hIgG4S228P, using 1 μg/well in 5% blotting grade blocker non-fat dry milk in PBS. Samples were tested in triplicates. The Fab antibody fragments were treated as the IgG antibodies. The plates were then washed 3× with PBS-T and 100 μL of primary antibody preparation was added in each well. The plates were then incubated for 1 hr at room temperature.
(§3) Then, […] Ultra TMB-ELISA was added in each well, and the plate was allowed to develop for 5 min at room temperature. After 5 min, 50 μL of 2 M sulfuric acid was added to each well to stop the reaction. The plates were then analyzed on a plate reader at an absorbance wavelength of 450 nm.
On the technique in general: ELISA stands for enzyme-linked immunosorbent assay.

The target in assay [2] is T2, Human HPTP-η with C-terminal His10 tag (Human HPTP-η ECD) (human, UniProt Q12913 36-975).
T2 construct: Produced in HEK293 cells; it was not cut off; also called Human PTPη; human PTP-η
T2 sequence: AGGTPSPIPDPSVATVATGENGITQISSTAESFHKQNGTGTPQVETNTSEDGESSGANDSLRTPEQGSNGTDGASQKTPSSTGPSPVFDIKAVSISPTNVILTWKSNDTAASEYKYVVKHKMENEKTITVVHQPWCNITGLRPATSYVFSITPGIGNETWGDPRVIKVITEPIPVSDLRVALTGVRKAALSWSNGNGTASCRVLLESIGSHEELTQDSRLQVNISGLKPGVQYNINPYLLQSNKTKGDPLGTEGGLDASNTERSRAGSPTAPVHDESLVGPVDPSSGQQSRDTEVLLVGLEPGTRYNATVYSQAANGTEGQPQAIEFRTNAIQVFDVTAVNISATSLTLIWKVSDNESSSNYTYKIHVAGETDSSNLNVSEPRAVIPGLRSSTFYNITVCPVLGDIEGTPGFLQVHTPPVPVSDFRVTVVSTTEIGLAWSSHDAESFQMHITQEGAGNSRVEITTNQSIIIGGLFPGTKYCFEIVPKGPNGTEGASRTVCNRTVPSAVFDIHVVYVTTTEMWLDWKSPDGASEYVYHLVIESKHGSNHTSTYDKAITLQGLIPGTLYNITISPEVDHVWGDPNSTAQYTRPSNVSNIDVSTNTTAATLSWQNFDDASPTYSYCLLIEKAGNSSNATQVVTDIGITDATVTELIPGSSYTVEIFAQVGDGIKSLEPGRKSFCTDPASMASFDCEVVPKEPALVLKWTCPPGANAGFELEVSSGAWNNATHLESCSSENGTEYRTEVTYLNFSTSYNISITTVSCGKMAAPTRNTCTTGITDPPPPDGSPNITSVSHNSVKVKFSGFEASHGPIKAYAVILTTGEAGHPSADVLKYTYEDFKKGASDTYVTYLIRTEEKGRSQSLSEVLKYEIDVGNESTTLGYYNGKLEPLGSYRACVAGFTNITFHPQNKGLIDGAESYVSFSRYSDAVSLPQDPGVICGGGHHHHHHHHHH
The assay is described as follows: ELISA, coated antigen. Here is the method:
as §1, §2, §3

The target of a further assay is T3, VEGFR2 (human, UniProt P35968 20-1356).
T3 construct: Named only as 'VEGFR2; (R2/T2)' in the immunoprecipitation experiment with HUVECs
T3 sequence (P35968 20-1356 limits assumed): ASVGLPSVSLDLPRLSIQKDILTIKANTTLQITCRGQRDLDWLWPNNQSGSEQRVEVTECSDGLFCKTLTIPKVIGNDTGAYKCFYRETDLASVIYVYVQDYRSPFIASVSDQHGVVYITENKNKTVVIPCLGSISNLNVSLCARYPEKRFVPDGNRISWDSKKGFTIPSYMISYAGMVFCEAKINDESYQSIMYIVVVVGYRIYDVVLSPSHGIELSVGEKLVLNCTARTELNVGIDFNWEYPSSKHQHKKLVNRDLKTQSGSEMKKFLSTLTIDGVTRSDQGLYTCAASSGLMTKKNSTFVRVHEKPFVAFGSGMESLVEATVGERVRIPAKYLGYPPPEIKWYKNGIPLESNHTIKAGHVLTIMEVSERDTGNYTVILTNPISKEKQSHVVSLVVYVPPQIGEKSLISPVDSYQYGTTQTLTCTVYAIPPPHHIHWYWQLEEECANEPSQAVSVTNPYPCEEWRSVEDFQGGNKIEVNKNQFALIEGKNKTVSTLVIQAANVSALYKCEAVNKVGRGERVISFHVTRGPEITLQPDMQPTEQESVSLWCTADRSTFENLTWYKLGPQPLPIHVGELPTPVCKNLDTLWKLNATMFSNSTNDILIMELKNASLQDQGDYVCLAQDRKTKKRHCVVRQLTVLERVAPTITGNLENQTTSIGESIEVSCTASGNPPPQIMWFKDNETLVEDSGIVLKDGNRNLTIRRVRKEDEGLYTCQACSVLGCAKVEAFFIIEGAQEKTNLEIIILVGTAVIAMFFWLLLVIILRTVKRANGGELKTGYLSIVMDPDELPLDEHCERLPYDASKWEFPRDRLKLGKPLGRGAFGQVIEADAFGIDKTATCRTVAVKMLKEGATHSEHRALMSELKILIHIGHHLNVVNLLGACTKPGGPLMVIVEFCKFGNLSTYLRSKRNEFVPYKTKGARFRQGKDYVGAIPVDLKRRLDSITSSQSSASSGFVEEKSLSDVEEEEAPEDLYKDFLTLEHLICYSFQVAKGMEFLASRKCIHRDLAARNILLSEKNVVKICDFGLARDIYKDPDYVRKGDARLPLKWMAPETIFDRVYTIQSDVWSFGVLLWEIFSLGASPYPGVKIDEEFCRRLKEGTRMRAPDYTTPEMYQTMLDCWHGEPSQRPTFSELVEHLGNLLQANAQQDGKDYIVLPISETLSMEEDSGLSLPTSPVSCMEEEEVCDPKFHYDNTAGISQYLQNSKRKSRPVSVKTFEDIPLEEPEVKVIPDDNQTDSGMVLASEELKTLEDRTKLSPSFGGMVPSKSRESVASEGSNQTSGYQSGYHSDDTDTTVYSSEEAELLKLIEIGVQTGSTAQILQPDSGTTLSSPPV
The experiment in a line: immunoprecipitation western blot, HUVECs. (In general: Immunoblotting shows a protein as a band on a membrane.)

In a further assay the target is T4, Tie2 (human, UniProt Q02763 23-1124).
T4 construct: Named only as 'Tie2 (R2/T2)' in the immunoprecipitation experiment with HUVECs; also called T2
T4 sequence (Q02763 23-1124 limits assumed): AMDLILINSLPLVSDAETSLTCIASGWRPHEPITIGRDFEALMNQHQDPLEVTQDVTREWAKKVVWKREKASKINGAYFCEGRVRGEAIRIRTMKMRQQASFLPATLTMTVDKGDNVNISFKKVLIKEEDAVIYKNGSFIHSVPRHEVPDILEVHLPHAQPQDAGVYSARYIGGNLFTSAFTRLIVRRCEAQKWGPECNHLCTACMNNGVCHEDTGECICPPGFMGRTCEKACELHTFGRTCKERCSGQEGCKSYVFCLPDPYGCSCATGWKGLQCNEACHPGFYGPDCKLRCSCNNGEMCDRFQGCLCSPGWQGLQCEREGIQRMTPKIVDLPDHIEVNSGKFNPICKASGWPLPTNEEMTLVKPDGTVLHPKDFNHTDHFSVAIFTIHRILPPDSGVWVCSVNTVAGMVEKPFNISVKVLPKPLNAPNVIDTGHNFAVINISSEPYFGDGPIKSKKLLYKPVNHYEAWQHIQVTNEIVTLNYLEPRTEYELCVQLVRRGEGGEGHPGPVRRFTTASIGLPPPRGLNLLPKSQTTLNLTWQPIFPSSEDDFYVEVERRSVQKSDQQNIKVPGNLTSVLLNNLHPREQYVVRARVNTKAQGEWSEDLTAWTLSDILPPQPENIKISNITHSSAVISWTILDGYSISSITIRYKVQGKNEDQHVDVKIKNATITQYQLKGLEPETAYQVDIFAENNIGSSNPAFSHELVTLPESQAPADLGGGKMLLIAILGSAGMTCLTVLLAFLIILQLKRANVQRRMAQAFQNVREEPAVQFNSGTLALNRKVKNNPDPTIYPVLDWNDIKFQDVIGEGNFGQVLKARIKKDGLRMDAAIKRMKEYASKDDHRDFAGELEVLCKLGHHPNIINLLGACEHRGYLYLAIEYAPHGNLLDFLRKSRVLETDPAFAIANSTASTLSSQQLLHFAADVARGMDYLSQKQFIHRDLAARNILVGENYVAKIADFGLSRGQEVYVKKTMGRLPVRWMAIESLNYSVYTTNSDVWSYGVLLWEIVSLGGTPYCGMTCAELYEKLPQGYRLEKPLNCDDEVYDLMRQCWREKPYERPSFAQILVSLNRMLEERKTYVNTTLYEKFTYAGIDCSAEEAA
The experiment in a line: immunoprecipitation western blot, HUVECs.

Assay [3] addresses T5, Human VE-PTP (HPTP-β) containing first eight FN3 repeats with C-terminal His6 tag (Human ½ VE-PTP ECD) (human, UniProt P23467 23-820).
T5 construct: Produced in HEK293 cells and purified by the His tag; it was not cut off; also called Human Beta ½ ECD
T5 sequence: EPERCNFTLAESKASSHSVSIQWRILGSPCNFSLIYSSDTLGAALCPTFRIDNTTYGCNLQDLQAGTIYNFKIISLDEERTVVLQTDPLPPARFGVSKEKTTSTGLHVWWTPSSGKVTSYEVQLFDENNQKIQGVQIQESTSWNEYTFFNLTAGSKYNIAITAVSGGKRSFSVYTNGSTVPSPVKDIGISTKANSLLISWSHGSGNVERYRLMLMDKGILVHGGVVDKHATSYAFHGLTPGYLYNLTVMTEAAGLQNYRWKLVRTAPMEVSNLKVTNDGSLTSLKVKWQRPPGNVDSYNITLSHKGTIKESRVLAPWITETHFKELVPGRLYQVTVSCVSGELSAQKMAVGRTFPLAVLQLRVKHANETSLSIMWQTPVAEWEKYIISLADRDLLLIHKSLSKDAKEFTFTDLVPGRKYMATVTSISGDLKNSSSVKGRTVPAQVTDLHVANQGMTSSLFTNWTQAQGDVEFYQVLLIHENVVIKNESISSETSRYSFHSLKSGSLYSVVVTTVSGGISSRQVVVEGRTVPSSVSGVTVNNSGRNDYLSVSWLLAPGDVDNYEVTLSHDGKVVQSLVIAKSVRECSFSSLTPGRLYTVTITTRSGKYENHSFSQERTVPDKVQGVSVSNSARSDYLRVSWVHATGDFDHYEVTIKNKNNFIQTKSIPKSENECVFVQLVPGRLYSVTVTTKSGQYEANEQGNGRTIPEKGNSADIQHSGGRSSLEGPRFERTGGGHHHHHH
The experiment in a line: ELISA, antigen coated at 1 µg/mL, antibody 1 µg/well. Here is the method:
as §1, §2, §3

B1: murine monoclonal antibody R15E6 (antibody, V domains shown)
VH: EVQLVETGGGLVQPKGSMKLSCAASGFTFNANAMNWIRQAPGKGLEWVARIRTKSNNYATYYAGSVKDRFTISRDDAQNMLYLQMNDLKTEDTAMYYCVRDYYGSSAWITYWGQGTLVTVSA
VL: DIVMTQSHKFMSTSVGDRVSITCKASQHVGTAVAWYQQKPDQSPKQLIYWASTRHTGVPDRFTGSGSGTDFTLTISNVQSEDLADYFCQQYSSYPFTFGSGTKLEIK
notes: Murine monoclonal antibody of hybridoma ATCC PTA-7580, 150 kDa; also called Parental; parental antibody
In the case of B1, the binding result in assay [1] is “no binding (tested: <=0.2; 1 µg/well)”; in assay [2], “no binding (tested: <=0.2; 1 µg/well)”; with VEGFR2 it was “no binding”; in the assay with Tie2, “no binding”. Besides, the “ELISA value (absorbance at 450 nm)” value in assay [3] was determined as 2.43.
